Legend:
PAI-1 [1] = target: T1, PAI-1 (Homo sapiens, UniProt P05121); test: Inhibition of PAI-1 anti-proteolytic activity, uPA/plasminogen chromogenic (colorimetric) assay; assay type: biochemical; details: for PAI-1 activity in vitro (chromogenic assay): yes/no, table title: Peptide fragments inhibiting PAI-1
T1 construct: gift of Pr; P. Declerck
Experimental: The main physiological function of PAI-1 is to inhibit uPA and tPA proteolytic activity. […] A chromogenic substrate for plasmin (Spectrozyme PL: 0.5 mM. American Diagnostica INC) in PBS was added to the mixture in 96-well microtitration plates and kept at room temperature. The release of free p-nitro-aniline from the chromogenic substrate was measured spectrophotometrically. The activity of plasmin was determined as the absorbance at 405 nm.

PAI-1 [2] = target: T1, PAI-1; test: Casein zymography of plasmin generation by uPA in presence of PAI-1; assay type: biochemical
Experimental: (a) Proteolytic activity of uPA on plasminogen (Plg) in different conditions was determined by colorimetric assay (absorbance at 405 nm) as described in Methods. […] The data represent the means±SD of duplicate samples and experiment was repeated at least three times. (b) Casein zymography showing Plg and plasmin (Pln) generation by uPA in the presence of PAI-1 alone or in combination with 14K GH or 22K GH.
For this test casein (1 mg/ml) was incorporated in 10% SDS polyacrylamide gels. Aliquots of in vitro reaction including recombinant proteins were mixed with loading buffer (10% SDS, 4% Sucrose, 0.25M Tris-Hcl pH6-8, 0.1% Bromophenol blue). After electrophoresis, SDS was removed from the gel by two washes (30 min each) of 100 mM glycine, 2.5% Triton buffer (pH 8.0) stained with 0.1% coomassie brilliant bleu, and destained in 20% methanol/10% acetic acid.

PAI-1 [3] = target: T1, PAI-1; test: In vitro clot lysis assay in pooled normal human plasma with added PAI-1 and tPA; assay type: biochemical; details: peptides 25 μM, human plasma; for ablility to induce clot lysis: yes/no, added PAI-1, tPA
Experimental: Clot lysis was performed as follows: pooled normal plasma were used in citrated tube. Recombinant wild type PAI-1 was incubated in the presence or in the absence of 16K hPRL (3 μM), 14K hGH (3 μM) or different peptides (25 μM) for 10 min at 37° C., before to be added to diluted plasma in tris tween buffer (75 μl of plasma in 200 μl of 10 mM TRIS pH 7.5, 0.01% tween 20), followed by a second incubation for 10 min at 37° C. tPA was added to each tube at the end to reach a final volume of […]. Aliquots from each tube (80 μl) were added in duplicate to 96 wells, each containing 20 μl CaCl2 to give the following final concentration per well of 10 mM. Clot formation and dissolution were monitored at RT measuring turbidity at 405 nm in 5 min intervals.

PAI-1 [4] = target: T2, PAI-1 (Mus musculus, UniProt P22777); test: Murine thromboembolism model (tPA/thromboplastin); assay type: in vivo; details: POPRL 7-12 10 mg/kg i.v. 5 min before t-PA/thromboplastin; control 50; p=0.3
T2 construct: from tissue; host or cells: BalbC Njrj mice, in vivo (blood)
T2 sequence (P22777 23-402): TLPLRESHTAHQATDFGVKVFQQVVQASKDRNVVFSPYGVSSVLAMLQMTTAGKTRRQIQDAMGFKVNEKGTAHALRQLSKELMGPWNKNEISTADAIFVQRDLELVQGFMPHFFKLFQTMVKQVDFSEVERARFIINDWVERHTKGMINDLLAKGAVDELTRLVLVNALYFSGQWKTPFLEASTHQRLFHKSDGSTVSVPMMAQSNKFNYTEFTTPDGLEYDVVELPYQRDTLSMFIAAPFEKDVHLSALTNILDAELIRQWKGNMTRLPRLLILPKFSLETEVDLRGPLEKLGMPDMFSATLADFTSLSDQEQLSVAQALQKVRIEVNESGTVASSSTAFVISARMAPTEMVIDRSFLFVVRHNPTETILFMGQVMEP
Experimental: BalbC Njrj Mice were used and anesthetised with ketamine/xylazine throughout the whole experiment. Recombinant 16K PRL and adenovirus vectors 16K-Ad and Null-Ad were produced as described above. The animal experiment protocol used was approved by the Institutional Ethics Committee of the University of Liege.
Recombinant 16K PRL (1 mg/kg) or POPRL 7-12 (10 mg/kg) were administrated via the vein to BalbC Njrj mice of approximately 15-18 g. Five minutes after the injection, a suboptimal concentration of t-PA (0.1 mg/kg) was injected immediately followed by i.v. injection of thromboplastin (3.3 μg/kg) to evoke thromboembolism. Mice were evaluated after 15 min for survival. For experiment with adenovirus vectors, mice were injected into the tail vein with 10^9 pfu of 16K hPRL adenovirus (16K-Ad) and their corresponding control (Null-Ad) 5 days before the injection a suboptimal concentration of t-PA (0.1 mg/kg) injected immediately followed by i.v. injection of thromboplastin (3.3 μg/kg).
The fisher test was used to determine the significance of the differences in the mortality assays.

T1 sequence (P05121 24-402): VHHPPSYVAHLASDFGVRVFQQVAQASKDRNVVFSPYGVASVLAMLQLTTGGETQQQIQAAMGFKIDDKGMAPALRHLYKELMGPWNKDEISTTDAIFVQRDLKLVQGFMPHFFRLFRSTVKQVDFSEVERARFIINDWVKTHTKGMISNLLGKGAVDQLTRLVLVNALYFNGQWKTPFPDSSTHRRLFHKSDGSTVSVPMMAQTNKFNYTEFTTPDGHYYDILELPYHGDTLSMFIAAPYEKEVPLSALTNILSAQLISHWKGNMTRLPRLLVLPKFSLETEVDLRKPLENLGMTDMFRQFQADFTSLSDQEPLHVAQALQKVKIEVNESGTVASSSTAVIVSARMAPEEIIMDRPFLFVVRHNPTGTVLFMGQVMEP

Substance	inhibition of PAI-1 function to inhibit uPA and tPA proteolytic activity (PAI-1 [1]; uPA, bovine plasminogen, PAI-1, absorbance 405 nm)	inhibition of plasmin (Pln) generation in the presence of PAI-1 (PAI-1 [2])	PAI-1 activity in vitro (chromogenic assay) (PAI-1 [1])	ablility to induce clot lysis (PAI-1 [3])	mortality (PAI-1 [4])	clot lysis in the presence of added PAI-1 (PAI-1 [3])
IQSWLE [POGH 9-14]			yes	yes		
LLRISL [POGH 1-6]			yes	yes		
LLRISLLLIQSWLE [POGH]			yes	yes		
RISLLL [POGH 3-8]			yes	yes		
SILRSW [POPRL 7-12]			yes	yes	30%	
SLLLIQ [POGH 5-10]			yes	yes		as effective as the tilted peptide of GH: POGH

Further lines, with some results ahead:

inhibition of PAI-1 function to inhibit uPA and tPA proteolytic activity (PAI-1 [1]; uPA, bovine plasminogen, PAI-1, absorbance 405 nm)	inhibition of plasmin (Pln) generation in the presence of PAI-1 (PAI-1 [2])	PAI-1 activity in vitro (chromogenic assay) (PAI-1 [1])	ablility to induce clot lysis (PAI-1 [3])	Substance	mortality (PAI-1 [4])	clot lysis in the presence of added PAI-1 (PAI-1 [3])
did not show any inhibition	no effect			22K GH: the full fragment (full-length) growth hormone [reference compound]		
		yes	yes	FLSLIV [POPRL 1-6]		
		yes	yes	IVSILR [POPRL 5-10]		
		no	no	LSQILSSLIQSWLE [POGHmut, reference compound]		

From US20130035289A1, “PHARMACEUTICAL COMPOSITION FOR TREATMENT OF THROMBOSIS-RELATED DISEASES COMPRISING A FRAGMENT OF PROLACTIN (PRL)-GROWTH HORMONE (GH)-PLACENTAL LACTOGEN (PL)-FAMILY PROTEIN” (UNIVERSITE DE LIEGE, priority 2010, published 2013)
